According to patent US20220168400A1, “USE OF A MANGANESE SUPEROXIDE DISMUTASE WITH HIGH STABILITY IN THE PREVENTION OR TREATMENT OF CEREBRAL STROKE” (CARRY HEALTH BIOPHARMACEUTICALS (HANGZHOU) CO., LTD., priority 2019, published 2022):
Values joined by “and” are separate entries in the source; they are usually repeats but may differ in a detail not shown here. Equal values may be shown once.

Assays:
[1] = system: middle cerebral artery occlusion (MCAO) model in C57BL/6J mice; assay: Cerebral infarction area in middle cerebral artery occlusion (MCAO) model (TTC staining); assay type: in vivo; conditions: vs model group
Source text: Male C57BL/6J wild-type mice were all purchased from Guangdong Experimental Animal Center. The male C57BL/6J wild-type mice were 8 weeks old, when they were subjected to establish middle cerebral artery occlusion (MCAO) model.
(3) MS-SOD1 group (10 mice): mice aged 4 weeks were fed with drinking water supplemented with MS-SOD for 4 weeks (3 U/day/g body weight), and then subjected to establish middle cerebral artery occlusion model;
(4) MS-SOD2 group (10 mice): after establishing middle cerebral artery occlusion model, the mice were intragastrically administered with MS-SOD 600 U once when they waked up from the anesthesia. […]
At 24 hours after MCAO model establishment, the head was cut off and the brain was taken after anesthesia. […] The infarction area of each territory was measured by ImageJ software. […] The total infarction area was calculated by integrating the infarction territories between sections.
Finally, the differences of different intervention conditions and MCAO model establishment on the degree of cerebral injury and neurological severity in mice were analyzed. All data were expressed as mean ±standard deviation. […]

[2] = system: cerebral hemorrhage model in wild-type AB strain zebrafish; assay: Movement velocity in simvastatin-induced cerebral hemorrhage model in zebrafish; assay type: in vivo; conditions: for Movement velocity (mean ± SE): n = 10, model control 80, normal control 198 mm/s
Description: 5 dpf wild-type AB strain zebrafish was administered with an aqueous simvastatin solution (0.5 μM) for 18 hours to establish a cerebral hemorrhage model in zebrafish. 180 wild-type AB strain zebrafishes at 5 days post fertilization (5 dpf) were randomly selected and put in a six-well plate, 30 per well (experiment group). Aqueous MS-SOD solutions with concentrations of 222, 667 and 2000 μg/mL were administrated respectively, the concentration of positive control drug icariin was 30 μM, and the normal control group and the model control group were set at the same time. The volume of each well was 3 mL. After treatment of zebrafishes with samples for 4 hours, except for the normal control group, the other experiment groups were treated with simvastatin for 18 hours to establish the cerebral hemorrhage model. After the treatment, 10 zebrafishes from each group were randomly selected to measure the movement velocity (V) of zebrafish using a behavioral analyzer. The statistical significance of the movement velocity was used to evaluate the behavioral improvement effect of MS-SOD on cerebral hemorrhage. The formula of the behavioral improvement effect of MS-SOD on cerebral hemorrhage was as follows: [formula] Statistical analysis was performed using variance analysis and Dunnett's T-test, and p<0.05 indicated a significant difference.

B1: MS-SOD: manganese superoxide dismutase with high stability, gene from Thermus thermophilus HB27 expressed in E. coli; amino acid sequence SEQ ID NO: 4 (protein)
chain: MPYPFKLPDLGYPYEALEPHIDAKTMEIHHQKHHGAYVTNLNAALEKYPYLHGVEVEVLLRHLAALPQDIQTAVRNNGGGHLNHSLFWRLLTPGGAKEPVGELKKAIDEQFGGFQALKEKLTQAAMGRFGSGWAWLVKDPFGKLHVLSTPNQDNPVMEGFTPIVGIDVWEHAYYLKYQNRRADYLQAIWNVLNWDVAEEFFKKA
modifications: Amino acid sequence for MS-SOD
area of cerebral injury ([1]; MS-SOD1 group: 3 U/day/g body weight for 4 weeks before MCAO, P=0): significantly reduced | area of cerebral injury ([1]; MS-SOD2 group: 600 U intragastrically once after MCAO, P=0.015): significantly reduced | Movement improvement effect ([2]; MS-SOD 222 μg/mL): −2% | Movement velocity (mean ± SE) ([2]; MS-SOD 222 μg/mL): 78 mm/s and 78 ± 4 mm/s | Movement improvement effect ([2]; MS-SOD 667 μg/mL): 7% | Movement velocity (mean ± SE) ([2]; MS-SOD 667 μg/mL): 88 mm/s and 88 ± 3 mm/s | Movement improvement effect ([2]; MS-SOD 2000 μg/mL): 53% | Movement velocity (mean ± SE) ([2]; MS-SOD 2000 μg/mL): 143 mm/s and 143 ± 24 mm/s
